Data: patent US20240207421A1, “NERVE TARGETING PEPTIDES AND METHODS OF USE” (ALUME BIOSCIENCES, INC., priority 2020, published 2024)

The substances below were run against T1, Human Myelin Basic Protein (Homo sapiens, UniProt P02686) (assay: phage display, NGS count). Settings: not given.
Target sequence in this assay (P02686 135-304 limits assumed): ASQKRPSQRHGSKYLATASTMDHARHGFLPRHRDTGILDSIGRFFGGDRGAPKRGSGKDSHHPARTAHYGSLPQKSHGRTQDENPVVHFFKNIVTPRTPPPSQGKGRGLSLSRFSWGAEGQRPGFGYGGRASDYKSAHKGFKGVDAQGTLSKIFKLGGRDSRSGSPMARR

| Count | Substance |
| --- | --- |
| 7 | DVVKDVI (peptide) |
| 8 | IILPSAQ (peptide) |
| 6 | YSSRLND (peptide) |
| 7 | WPDLRIL (peptide) |
| 6 | AKFTMWV (peptide) |
| 7 | AILTRPP (peptide) |
| 7 | NMYPRVT (peptide) |
| 6 | SYRSMAP (peptide) |
| 7 | SISKIRT (peptide) |
| 8 | TSPPLAH (peptide) |
| 6 | TIRVAHT (peptide) |
| 8 | QQAHLQS (peptide) |
| 6 | SSMRYNS (peptide) |
| 6 | SPKPDIP (peptide) |
| 6 | MNSPLAQ (peptide) |
| 9 | SRPTRVP (peptide) |
| 6 | GRHTDVV (peptide) |
| 6 | HPWSHPN (peptide) |
| 6 | IPYSQMP (peptide) |
| 6 | TGSVSKQ (peptide) |
| 6 | HSGPLLP (peptide) |
| 6 | AISWKGF (peptide) |
| 7 | VSFTLEP (peptide) |
| 6 | KMSLAPP (peptide) |
| 7 | LFRRVTE (peptide) |
| 7 | FSAGVGK (peptide) |
| 6 | YTASPRW (peptide) |

The substances below were run against T1, Human Myelin Basic Protein (assay: Phage display library screening (Example 2, Python script analysis), binding to Human Myelin Basic Protein). Settings: R3 Myelin Basic Protein; combined unique sequence count, Python/R script analysis.
Design: Enzo 200-606-M001 from human; purchased Enzo 200-606-M001; host or cells: human brain (tissue-derived)
Description: Phage display library screens were used to identify peptides that bind to target proteins (including specific laminin trimers) that are expressed in human nerves, as described in Table 3. These screens were also carried out to identify peptides that could bind selectively to nerves versus muscle. Such peptides could therefore be useful for systemic in-vivo labeling of nerves during fluorescence assisted surgery. Specifically, m 13 phage libraries expressing 7 or 12 random amino acid peptides, or a cyclic peptide CX7C, on the N-terminus of the minor coat protein pIII (New England Biolabs; NEB) were processed through multiple rounds of selection for binding to target proteins expressed in nerves, or to excised human nerves, nerve extracts, or muscle, as described further below.
For screening against the specified target proteins in Table 1, including LN211, LN411, LN421, and LN521, the phage library was processed by up to 4 binding and wash cycles. For selection, phage libraries were incubated for up to 24 hours at 4° C. in 96 well plates that had been coated with one of the target proteins. Plates were then washed with PBS and phage were eluted using 0.2M glycine pH 2.0. Phage supernatants where then neutralized with Tris pH 9.0 prior to plating on TGI bacteria and LB agar plates. Colonies were counted to determine titer followed by DNA preparation of pools of phage and NextGen sequencing. After rounds of selection, phage were pooled and amplified for iterative selection. Phage that were bound at each round were sequenced. NextGen sequencing of pools after 2, 3 and 4 rounds of selection was used to isolate candidate sequences that were analyzed further to identify those that specifically bound each unique target protein.
Python Script Analysis: For all NEB sequence datasets, a python script was used to translate, trim, and filter the peptide sequences. The script translated the nucleotide sequences, translating amber codons as glutamine in peptide sequences, and then trimmed the end sequences that come from the vector. Secondly, the script combined the unique counts of trimmed peptides with identical sequences. […] Another python script was used to group peptides from different assays according to protein target (Myelin Protein Zero, Myelin Proteolipid Protein, Myelin Basic Protein, and Nidogen-2) and also combine the unique sequence counts for each peptide. An R script was written to merge the peptide sequences from different data files and determine peptides specific for each protein target but absent from different protein binding datasets. Peptide sequences were ranked by unique sequence count.
Target sequence in this assay (P02686 134-304): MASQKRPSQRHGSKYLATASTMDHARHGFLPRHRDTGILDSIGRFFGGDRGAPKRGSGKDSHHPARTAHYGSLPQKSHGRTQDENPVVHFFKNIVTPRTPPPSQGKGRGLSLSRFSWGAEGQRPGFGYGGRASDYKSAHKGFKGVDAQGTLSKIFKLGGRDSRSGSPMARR

| Substance | Count |
| --- | --- |
| DVRIWTL (R3 Myelin Basic Protein-binding peptide) | 6 |
| HSGPLLP (R3 Myelin Basic Protein-binding peptide) | 6 |
| LPPQISR (R3 Myelin Basic Protein-binding peptide) | 8 |
| IPYSQMP (R3 Myelin Basic Protein-binding peptide) | 6 |
| TGNLRLY (R3 Myelin Basic Protein-binding peptide) | 9 |
| AKFTMWV (R3 Myelin Basic Protein-binding peptide) | 6 |
| ASNTSKG (R3 Myelin Basic Protein-binding peptide) | 7 |
| HFYGPGP (R3 Myelin Basic Protein-binding peptide) | 9 |
| QKALPQT (R3 Myelin Basic Protein-binding peptide) | 6 |
| QTSIMSG (R3 Myelin Basic Protein-binding peptide) | 6 |
| MQRLGAD (R3 Myelin Basic Protein-binding peptide) | 6 |
| SYTLSRS (R3 Myelin Basic Protein-binding peptide) | 7 |
| YPYVPIY (R3 Myelin Basic Protein-binding peptide) | 6 |
| RGHPSQL (R3 Myelin Basic Protein-binding peptide) | 6 |
| KYRHGAE (R3 Myelin Basic Protein-binding peptide) | 7 |
| KMSLAPP (R3 Myelin Basic Protein-binding peptide) | 6 |
| HPTGTPT (R3 Myelin Basic Protein-binding peptide) | 7 |
| KIITTKS (R3 Myelin Basic Protein-binding peptide) | 6 |
| SIRMTEI (R3 Myelin Basic Protein-binding peptide) | 7 |
| NLTYLRF (R3 Myelin Basic Protein-binding peptide) | 6 |
| QNSYLSN (R3 Myelin Basic Protein-binding peptide) | 8 |
| YPTYLSY (R3 Myelin Basic Protein-binding peptide) | 6 |
| MPLLELP (R3 Myelin Basic Protein-binding peptide) | 7 |
| VSFTLEP (R3 Myelin Basic Protein-binding peptide) | 7 |

| Substance | Count |
| --- | --- |
| SIQTSAM (R3 Myelin Basic Protein-binding peptide) | 6 |
| TRIPILL (R3 Myelin Basic Protein-binding peptide) | 6 |
| GVAEVGL (R3 Myelin Basic Protein-binding peptide) | 6 |
| WDLPQNR (R3 Myelin Basic Protein-binding peptide) | 6 |
| TTTQGHP (R3 Myelin Basic Protein-binding peptide) | 6 |
| HLLKTHS (R3 Myelin Basic Protein-binding peptide) | 7 |
| NSSPHQI (R3 Myelin Basic Protein-binding peptide) | 7 |
| WPDLRIL (R3 Myelin Basic Protein-binding peptide) | 7 |
| ESPYPHS (R3 Myelin Basic Protein-binding peptide) | 7 |
| INFPFAV (R3 Myelin Basic Protein-binding peptide) | 6 |
| SLRSVGA (R3 Myelin Basic Protein-binding peptide) | 7 |
| AQFLTIY (R3 Myelin Basic Protein-binding peptide) | 6 |
| ANLSRSV (R3 Myelin Basic Protein-binding peptide) | 9 |
| SSMRYNS (R3 Myelin Basic Protein-binding peptide) | 6 |
| FKLPWAS (R3 Myelin Basic Protein-binding peptide) | 7 |
| SSGMLSK (R3 Myelin Basic Protein-binding peptide) | 7 |
| HFLRPSD (R3 Myelin Basic Protein-binding peptide) | 7 |
| GHSHYILGKPTA (R3 Myelin Basic Protein-binding peptide) | 7 |
| SKPHASH (R3 Myelin Basic Protein-binding peptide) | 6 |
| SRPTRVP (R3 Myelin Basic Protein-binding peptide) | 9 |
| ELKSLRF (R3 Myelin Basic Protein-binding peptide) | 6 |
| KVHHLAR (R3 Myelin Basic Protein-binding peptide) | 6 |
| TPLYLSS (R3 Myelin Basic Protein-binding peptide) | 7 |
| HPDTLPQ (R3 Myelin Basic Protein-binding peptide) | 7 |

| Substance | Count |
| --- | --- |
| SLWTHRT (R3 Myelin Basic Protein-binding peptide) | 6 |
| FSARTNT (R3 Myelin Basic Protein-binding peptide) | 9 |
| WVPDRSL (R3 Myelin Basic Protein-binding peptide) | 6 |
| WTYHPTT (R3 Myelin Basic Protein-binding peptide) | 6 |
| SPKPDIP (R3 Myelin Basic Protein-binding peptide) | 6 |
| TGSVSKQ (R3 Myelin Basic Protein-binding peptide) | 6 |
| SISKIRT (R3 Myelin Basic Protein-binding peptide) | 7 |
| NPTDTNK (R3 Myelin Basic Protein-binding peptide) | 8 |
| NLKLWTR (R3 Myelin Basic Protein-binding peptide) | 7 |
| NGVSSSL (R3 Myelin Basic Protein-binding peptide) | 6 |
| TPGRATL (R3 Myelin Basic Protein-binding peptide) | 6 |
| WSLPLLS (R3 Myelin Basic Protein-binding peptide) | 7 |
| LITHPQL (R3 Myelin Basic Protein-binding peptide) | 6 |
| KNSIAPR (R3 Myelin Basic Protein-binding peptide) | 8 |
| HPWLGNR (R3 Myelin Basic Protein-binding peptide) | 9 |
| WDLRHSK (R3 Myelin Basic Protein-binding peptide) | 6 |
| GPRVTPH (R3 Myelin Basic Protein-binding peptide) | 6 |
| HYSPNVM (R3 Myelin Basic Protein-binding peptide) | 9 |
| SVEYGQL (R3 Myelin Basic Protein-binding peptide) | 9 |
| CPRMNNPLC (R3 Myelin Basic Protein-binding peptide) | 7 |
| FDLLARK (R3 Myelin Basic Protein-binding peptide) | 6 |
| HQMRTML (R3 Myelin Basic Protein-binding peptide) | 6 |
| GQWWKML (R3 Myelin Basic Protein-binding peptide) | 6 |
| ALGTRPL (R3 Myelin Basic Protein-binding peptide) | 7 |
